Assay results as given in US20090202556A1 (Kyowa Kirin, published 2009).

T1: human CLDN4 (Claudin-4) expressed by human cancer cell lines (Capan-2, HPAF-II, MCF7, HT-29, SW480, 22Rv1, DU … (human, UniProt O14493 1-209))
T1 construct: Endogenous protein on cell lines; MCF7 is said to express both CLDN3 and CLDN4; also called CLDN4 expressed in breast cancer cells, colorectal cancer cells and prostate cancer cells
T1 sequence: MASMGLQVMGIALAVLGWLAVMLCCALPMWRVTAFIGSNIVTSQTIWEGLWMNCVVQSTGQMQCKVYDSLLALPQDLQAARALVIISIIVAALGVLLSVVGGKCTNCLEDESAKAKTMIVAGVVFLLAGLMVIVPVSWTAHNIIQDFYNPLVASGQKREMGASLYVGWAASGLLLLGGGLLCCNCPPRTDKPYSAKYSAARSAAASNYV


What was measured:
[1] = target: T1, human CLDN4 (Claudin-4) expressed by …; test: FCM on live cancer cell lines, 5 µg/ml
Description: (§1) Human pancreatic cancer cell lines Capan-2 and HPAF-II human lymphoma cell line Daudi (ATCC CCL-213), human breast cancer cell line MCF7 (ATCC HTB-22), human colorectal cancer cell lines HT-29 (ATCC HTB-38) and SW480 (ATCC CCL-228) and human prostate cancer cell line s 22Rv1 (ATCC CRL-2505), DU 145 (ATCC HTB-81) and PC-3 (ATCC CRL-1435) were cultured for 3 to 4 days, and adhered cells were peeled off using 0.02% EDTA solution (manufactured by Nacalai Tesque) to recover the cells. The thus recovered cells were washed with PBS and, in order to prevent nonspecific adsorption of antibodies, blocked at ice temperature for 30 minutes using BSA-PBS. The cells were dispensed at 1 to 5×10⁵ cells/100 μl BSA-PBS into a 96-well U bottom plate and centrifuged (1,500 rpm, 5 minutes), the supernatant was removed and then a mouse anti-serum to be immunized, a culture supernatant of hybridoma KM3900 (8.6 μg/ml), anti-CLDN4 monoclonal antibodies KM3900 and KM3907 diluted to 5 μg/ml or a mouse IgG2a isotype control (manufactured by DAKO) was dispensed as the primary antibody at 100 μl/well and allowed to react at ice temperature for 60 minutes. […] After the reaction, the cells were washed once with BSA-PBS and suspended in PBS, and the fluorescent intensity was measured by FCM (manufactured by Beckman Coulter).

[2] = target: T1, human CLDN4 (Claudin-4) expressed by …; test: FCM on live Capan-2 and HPAF-II cells, 8.6 µg/ml
Description: as §1, with “Coulter). […]” for “Coulter).”

| binding result [1] | binding result [2] | Binder |
| --- | --- | --- |
| binds |  | anti-CLDN4 monoclonal antibody KM3907 produced by hybridoma KM3907 (FERM BP-10885) (antibody, mouse IgG2a, V domains shown) VH: QVQLQQSGPELVKPGASVKISCKASGYAISTSWMNWVKQRPGKGLEWIGRINPGDGNTNYNGKFMAKATLTADKPSSTAYMQLSSLTSEDSAVYFCTRGDRWSGAMDYWGQGTSVTVSS VL: GNVLTQSPAIMSASPGEKVTMTCRASSSVSSSYLHWYQQKSGASPKLWIYSTSNLASGVPVRFSGSGSGTSYSLTISSVEAEDAATYYCQQYSGFPLTFGAGTKLELK |
|  | binds | anti-CLDN4 monoclonal antibody KM3900 produced by hybridoma KM3900 (FERM BP-10751) (antibody, V domains shown, Used as hybridoma culture supernatant (8.6 µg/ml) or purified antibody (5 µg/ml); also called anti-CLDN4 mouse antibody KM3900) VH: EVQLQQSGPELVKPGASVKISCKASGYTFTDYYMNWVKQSHGKSLEWIGDVVPNNGVPTYNQKFKGKATLTVDKSSSTAYMELRSLTSEDSAVYYCARPHYYYAGRSGAMDYWGQGTSVTVSS VL: QIVLTQSPAIMSASLGERVTMTCTASSTVSSTYLHWYQQKPGSSPKLWIYSTSNLASGVPARFSGSGSGTSYSLTISSMEAEDAATYYCHQYHRSPPTFGGGTKLEIK |
